Experiment in all cases: purified protein
Data set [1] relates to NC(=O)C1=CN([C@@H]2O[C@H](COP(=O)(O)OP(=O)(O)OC[C@H]3O[C@@H](n4cnc5c(N)ncnc54)[C@H](OP(=O)(O)O)[C@@H]3O)[C@@H](O)[C@H]2O)C=CC1. The note with it: reductive amination, 5 mM α-KG, 50 mM NH4Cl, 80 mM Tris-HCl pH 8.0, 25 °C, pH 8.0.
A further data set deals with O=C(O)CCC(=O)C(=O)O. Particulars: reductive amination, 0.2 mM NADH, 50 mM NH4Cl, 80 mM Tris-HCl pH 8.0, 25 °C, pH 8.0.
Data set [2] relates to NC(=O)c1ccc[n+]([C@@H]2O[C@H](COP(=O)(O)OP(=O)(O)OC[C@H]3O[C@@H](n4cnc5c(N)ncnc54)[C@H](O)[C@@H]3O)[C@@H](O)[C@H]2O)c1. Particulars: oxidative deamination, 150 mM L-Glu, 80 mM CHES pH 9.5, 25 °C, pH 9.5.
For data set [3], the system named is NC(=O)c1ccc[n+]([C@@H]2O[C@H](COP(=O)(O)OP(=O)(O)OC[C@H]3O[C@@H](n4cnc5c(N)ncnc54)[C@H](OP(=O)(O)O)[C@@H]3O)[C@@H](O)[C@H]2O)c1. The note with it: oxidative deamination, 150 mM L-Glu, 80 mM imidazole pH 6.0, 25 °C, pH 6.0.
The subject of data set [4] is NC(=O)C1=CN([C@@H]2O[C@H](COP(=O)(O)OP(=O)(O)OC[C@H]3O[C@@H](n4cnc5c(N)ncnc54)[C@H](O)[C@@H]3O)[C@@H](O)[C@H]2O)C=CC1. Particulars: reductive amination, 5 mM α-KG, 50 mM NH4Cl, 80 mM Tris-HCl pH 8.0, 25 °C, pH 8.0.

A word on the Km: it is the concentration of substrate that gives half-maximal velocity. The Vmax is the rate approached at saturating substrate. In general, kcat refers to the maximal rate divided by the concentration of active sites. As usually defined, the kcat/Km is the turnover number divided by the Michaelis constant.

On to GdhPa (Pantoea ananatis LMG 5342), for which the Km in data set [1] worked out at 78 ± 17 µM; with O=C(O)CCC(=O)C(=O)O, 1300 ± 210 µM; in data set [2], 900 ± 60 µM; in data set [3], 440 ± 50 µM; in data set [4] it was 70 ± 14 µM. Further, the Vmax in data set [1] came out at 6.29 µmol/min/mg; in the data set on O=C(O)CCC(=O)C(=O)O, 5.93 µmol/min/mg; in data set [2] it was 11.6 µmol/min/mg; in data set [3] it was 0.67 µmol/min/mg; in data set [4], 5.43 µmol/min/mg. Besides, the kcat was found to be 4.87 s⁻¹ in data set [1]; 4.6 s⁻¹ in the data set on O=C(O)CCC(=O)C(=O)O; 8.97 s⁻¹ in data set [2]; 0.52 s⁻¹ in data set [3]; 4.21 s⁻¹ in data set [4]. In addition, the specificity constant (kcat/Km) in data set [1] was found to be 62500 M⁻¹ s⁻¹; in the data set on O=C(O)CCC(=O)C(=O)O, 3540 M⁻¹ s⁻¹; in data set [2] it was 9960 M⁻¹ s⁻¹; in data set [3] it was 1180 M⁻¹ s⁻¹; in data set [4], 60100 M⁻¹ s⁻¹.

These data come from paper PMC12364357, “Glutamate dehydrogenase from Pantoea ananatis: A new bacterial enzyme with dual coenzyme specificity” (PLOS One, 2025).
